Test results: patent US20100203046A1 (Biogen, published 2010)

T1: human FcγRIIb (CD32b) on CHO-FcγRII cells (human, UniProt P31994 43-310)
T1 construct: whole, on cells
T1 sequence (looked up): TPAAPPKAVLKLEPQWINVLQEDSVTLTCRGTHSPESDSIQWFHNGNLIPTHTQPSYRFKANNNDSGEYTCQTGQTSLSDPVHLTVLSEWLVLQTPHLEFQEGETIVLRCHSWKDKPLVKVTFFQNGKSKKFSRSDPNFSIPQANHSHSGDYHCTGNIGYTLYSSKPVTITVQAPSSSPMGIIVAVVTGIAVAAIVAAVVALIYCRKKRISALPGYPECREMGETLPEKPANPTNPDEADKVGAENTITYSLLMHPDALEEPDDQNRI


Tests used:
[1] = target: T2, human FcγRI (CD64) on IFNγ-activated U937 cells (human, UniProt P12314 16-374); assay: CD64 bridging assay, purified
T2 construct: whole, on cells; also called FcγR1

[2] = target: T1, human FcγRIIb (CD32b) on CHO-FcγRII …; assay: CD32b bridging assay, purified
[3] = target: T3, human FcγRIII (CD16), CD16a (F158), on CD16-transfected Jurkat cells (human, UniProt P08637 17-254); assay: CD16 bridging assay, purified
T3 construct: whole, on cells

[4] = target: T3, human FcγRIII (CD16), CD16a (F158), on …; assay: CD16 bridging assay, transient
[5] = target: T4, human C1q (Sigma C0660) (human, UniProt P02745 23-245; P02746 28-253; P02747 29-245); assay: C1q ELISA on CD2, purified
T4 construct: Bought protein; also called complement protein C1q

[6] = target: T3, human FcγRIII (CD16), CD16a (F158), on …; assay: CD16 bridging assay, purified; remark: listed apart in the source
[7] = target: T5, GST-tagged FcγRIII, CD16a (V158) (UniProt P08637 17-208, limits assumed); assay: AlphaScreen competition vs huIgG1 beads, purified
T5 construct: the canonical entry carries F there; Captured by biotinylated anti-GST mAb on streptavidin donor beads; also called GST-FcγRIII; not shown: GST tag
Procedure: The relative binding affinities to FcγRIII (CD16), of the variant antibodies, was determined using an AlphaScreen assay (Amplified Luminescent Proximity Homogeneous Assay, PerkinElmer, MA, USA). Laser excitation of a donor bead excites oxygen, which if in close proximity to an acceptor bead generates a cascade of chemiluminescent events, ultimately leading to fluorescence emission at 520-620 nm. […] The reaction was carried out for one hour in a 25 μl volume and plates were read in the Fusion Alpha reader (PerkinElmer).

[8] = target: T4, human C1q (Sigma C0660); assay: C1q ELISA on CD2, transient
[9] = target: T3, human FcγRIII (CD16), CD16a (F158), on …; assay: summary of Table 6 assays
[10] = target: T3, human FcγRIII (CD16), CD16a (F158), on …; assay: CD16 bridging assay, transient; remark: listed apart in the source
[11] = target: T3, human FcγRIII (CD16), CD16a (F158), on …; assay: summary of Table 5 assays
[12] = target: T3, human FcγRIII (CD16), CD16a (F158), on …; assay: CD16 bridging assay, purified; remark: listed apart in the source
[13] = target: T3, human FcγRIII (CD16), CD16a (F158), on …; assay: CD16 bridging assay, transient; remark: listed apart in the source

T3 sequence (P08637 17-254): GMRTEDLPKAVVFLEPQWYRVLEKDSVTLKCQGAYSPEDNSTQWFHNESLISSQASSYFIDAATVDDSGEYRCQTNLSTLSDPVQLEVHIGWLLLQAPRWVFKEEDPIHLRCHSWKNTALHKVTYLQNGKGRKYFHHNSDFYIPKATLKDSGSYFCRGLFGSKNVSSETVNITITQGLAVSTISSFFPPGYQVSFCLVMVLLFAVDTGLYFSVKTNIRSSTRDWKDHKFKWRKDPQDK
T4 sequence (P02745 23-245 limits assumed, chain 1 of 3): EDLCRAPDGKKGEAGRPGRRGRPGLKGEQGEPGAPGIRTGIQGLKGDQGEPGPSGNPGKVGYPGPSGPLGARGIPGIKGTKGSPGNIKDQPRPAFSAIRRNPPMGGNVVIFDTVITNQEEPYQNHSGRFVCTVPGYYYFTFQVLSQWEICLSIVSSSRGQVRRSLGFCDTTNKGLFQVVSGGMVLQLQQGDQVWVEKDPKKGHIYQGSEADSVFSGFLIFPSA
T4 sequence (P02746 28-253 limits assumed, chain 2 of 3): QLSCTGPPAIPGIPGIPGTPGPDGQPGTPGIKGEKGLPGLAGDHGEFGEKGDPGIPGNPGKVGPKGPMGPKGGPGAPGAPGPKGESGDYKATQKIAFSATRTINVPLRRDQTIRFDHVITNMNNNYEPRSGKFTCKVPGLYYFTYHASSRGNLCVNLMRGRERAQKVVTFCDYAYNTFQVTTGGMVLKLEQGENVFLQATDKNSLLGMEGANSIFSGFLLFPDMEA
T4 sequence (P02747 29-245 limits assumed, chain 3 of 3): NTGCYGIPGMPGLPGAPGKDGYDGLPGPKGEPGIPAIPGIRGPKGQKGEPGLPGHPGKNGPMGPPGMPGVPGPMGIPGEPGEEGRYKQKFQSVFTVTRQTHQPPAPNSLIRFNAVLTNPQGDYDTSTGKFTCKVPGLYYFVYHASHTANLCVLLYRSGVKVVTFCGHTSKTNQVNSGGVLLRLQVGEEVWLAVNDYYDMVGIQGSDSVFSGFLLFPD
T2 sequence (P12314 16-374): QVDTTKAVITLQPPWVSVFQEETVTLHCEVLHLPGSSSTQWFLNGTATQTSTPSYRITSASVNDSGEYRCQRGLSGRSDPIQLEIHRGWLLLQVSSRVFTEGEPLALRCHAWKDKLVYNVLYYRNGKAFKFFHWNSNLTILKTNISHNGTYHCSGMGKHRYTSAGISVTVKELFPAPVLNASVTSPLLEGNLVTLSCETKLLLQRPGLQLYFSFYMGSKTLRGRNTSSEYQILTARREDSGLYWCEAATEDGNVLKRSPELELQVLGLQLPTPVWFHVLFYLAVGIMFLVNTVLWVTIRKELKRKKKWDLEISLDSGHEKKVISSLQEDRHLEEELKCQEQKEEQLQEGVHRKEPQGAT
T5 sequence (P08637 17-208 F176V limits assumed): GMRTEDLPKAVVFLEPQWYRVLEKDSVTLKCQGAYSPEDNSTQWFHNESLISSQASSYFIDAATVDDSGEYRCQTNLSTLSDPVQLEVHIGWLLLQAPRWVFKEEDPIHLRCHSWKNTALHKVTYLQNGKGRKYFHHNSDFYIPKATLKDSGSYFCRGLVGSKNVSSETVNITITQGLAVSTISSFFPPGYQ

| Binder | binding result [1] | binding result [5] | fold decrease in binding vs WT [5] | fold decrease in binding vs WT [6] | binding result [8] | fold decrease in binding vs WT [9] | fold decrease in binding vs WT [10] | other results |
| --- | --- | --- | --- | --- | --- | --- | --- | --- |
| chCB6-huIgG1 L328N (antibody, name in EU numbering, copies: 2 + 2) heavy: not shown light: QIVLTQSPAIMSASPGEKVTMTCRASSSVSHMHWYQQKSGTSPKRWIYDTSKLASGVPARFSGSGSGTSYSLTISSVEAEDAATYYCQQWSSNPLTFGAGTKLELKRTVAAPSVFIFPPSDEQLKSGTASVVCLLNNFYPREAKVQWKVDNALQSGNSQESVTEQDSKDSTYSLSSTLTLSKADYEKHKVYACEVTHQGLSSPVTKSFNRGEC | binds | no binding | – | – | – | – | – | fold decrease in binding vs WT [2]: 3 fold; fold decrease in binding vs WT [3]: 10 fold; fold decrease in binding vs WT [4]: 2 fold |
| chCB6-huIgG1 D376Y (antibody, name in EU numbering, copies: 2 + 2) heavy: not shown light: QIVLTQSPAIMSASPGEKVTMTCRASSSVSHMHWYQQKSGTSPKRWIYDTSKLASGVPARFSGSGSGTSYSLTISSVEAEDAATYYCQQWSSNPLTFGAGTKLELKRTVAAPSVFIFPPSDEQLKSGTASVVCLLNNFYPREAKVQWKVDNALQSGNSQESVTEQDSKDSTYSLSSTLTLSKADYEKHKVYACEVTHQGLSSPVTKSFNRGEC | – | – | 3 fold | 3 fold | – | – | – | – |
| chCB6-huIgG1 T299C (antibody, name in EU numbering, Assay control; copies: 2 + 2) heavy: not shown light: QIVLTQSPAIMSASPGEKVTMTCRASSSVSHMHWYQQKSGTSPKRWIYDTSKLASGVPARFSGSGSGTSYSLTISSVEAEDAATYYCQQWSSNPLTFGAGTKLELKRTVAAPSVFIFPPSDEQLKSGTASVVCLLNNFYPREAKVQWKVDNALQSGNSQESVTEQDSKDSTYSLSSTLTLSKADYEKHKVYACEVTHQGLSSPVTKSFNRGEC | no binding | no binding | – | – | – | – | – | binding result [7]: no binding; binding result [2]: no binding; binding result [4]: no binding |
| chCB6-huIgG1 D376K (antibody, name in EU numbering, copies: 2 + 2) heavy: not shown light: QIVLTQSPAIMSASPGEKVTMTCRASSSVSHMHWYQQKSGTSPKRWIYDTSKLASGVPARFSGSGSGTSYSLTISSVEAEDAATYYCQQWSSNPLTFGAGTKLELKRTVAAPSVFIFPPSDEQLKSGTASVVCLLNNFYPREAKVQWKVDNALQSGNSQESVTEQDSKDSTYSLSSTLTLSKADYEKHKVYACEVTHQGLSSPVTKSFNRGEC | – | – | – | – | binds | > 10 fold | 15 fold | – |
| chCB6-huIgG1 Y296A (antibody, name in EU numbering, copies: 2 + 2) heavy: not shown light: QIVLTQSPAIMSASPGEKVTMTCRASSSVSHMHWYQQKSGTSPKRWIYDTSKLASGVPARFSGSGSGTSYSLTISSVEAEDAATYYCQQWSSNPLTFGAGTKLELKRTVAAPSVFIFPPSDEQLKSGTASVVCLLNNFYPREAKVQWKVDNALQSGNSQESVTEQDSKDSTYSLSSTLTLSKADYEKHKVYACEVTHQGLSSPVTKSFNRGEC | – | – | 3 fold | – | – | – | – | fold decrease in binding vs WT [11]: > 10 fold; fold decrease in binding vs WT [8]: 5 fold; fold decrease in binding vs WT [12]: 5 fold; fold decrease in binding vs WT [13]: 13 fold |
| chCB6-huIgG1 D376W (antibody, name in EU numbering, copies: 2 + 2) heavy: not shown light: QIVLTQSPAIMSASPGEKVTMTCRASSSVSHMHWYQQKSGTSPKRWIYDTSKLASGVPARFSGSGSGTSYSLTISSVEAEDAATYYCQQWSSNPLTFGAGTKLELKRTVAAPSVFIFPPSDEQLKSGTASVVCLLNNFYPREAKVQWKVDNALQSGNSQESVTEQDSKDSTYSLSSTLTLSKADYEKHKVYACEVTHQGLSSPVTKSFNRGEC | – | – | – | 3 fold | no binding | > 10 fold | 15 fold | – |
